This passage reports material aggregated results from patent EP4534102A1, “ANTIBODY DRUG CONJUGATE (ADC) TARGETING NECTIN 4 AND COMPRISING AN EXATECAN PAYLOAD” (Eli Lilly and Company, priority 2023, dated 2025).

The data set can be described thus: Aggregation by SEC-HPLC. The format is physicochemical. The method, then: As determined by SEC-HPLC, less than 5% material was aggregated. […] (See Figure 2 and corresponding Brief Description). […] (See Figure 3 and corresponding Brief Description). In vitro cytotoxic activity was assessed for the HCT-116-2G10 clone expressing human nectin-4. (See Figure 4 and corresponding Brief Description).
As a comparator ADC, the HA22 anti-Nectin-4 mAb was conjugated to maleimidocaproyl-valine-citrulline-PABC-MMAE to generate enfortumab vedotin. Briefly, a 15 mg/mL solution of the HA22 in 10 mM acetate 1% sorbitol, 3% L-arginine, pH 5.0 was supplemented with a 20% volume of 0.1 M Tris, 25 mM EDTA and 750 mM NaCl, pH 8.4 to adjust the pH of the solution to 7.5, 5 mM EDTA and 150 mM sodium chloride. […] The mixture was stirred for 60 minutes at 5° C, then for 15 additional minutes following the addition of 1 molar equivalents of N-acetylcysteine relative to cysteine reactive linker-MMAE compound. Excess quenched cysteine reactive linker-payload and other reaction components were removed by ultrafiltration/diafiltration of the antibody drug conjugate (ADC) with 10 volumes of 20 mM histidine, pH 6.0. The drug-antibody ratio (DAR) according to LC-MS analysis was 3.79 toxins per conjugated mAb. As determined by SEC-HPLC, less than 1% material was aggregated.
(SEC sorts molecules by how far they enter the pores of the column.)

With “enfortumab vedotin: HA22 anti-Nectin-4 mAb conjugated to maleimidocaproyl-valine-citrulline-PABC-MMAE; comparator ADC”, the material aggregated entry is “less than 1%”.
